7 molecules from US20220153863A1 (published 2022) can be followed below.

The chains are these.
B1: B029_1A7 full-length human IgG1 (antibody, V domains shown)
VH: EVQLLESGGGLVQPGGSLRLSCAASGFTFSSYWMSWVRQAPGKGLEWVSDISGSGGSTYYADSVKGRFTISRDNSKNTLYLQMNSLRAEDTAVYYCASLPDSSGYYHWFDPWGQGTLVTVSS
VL: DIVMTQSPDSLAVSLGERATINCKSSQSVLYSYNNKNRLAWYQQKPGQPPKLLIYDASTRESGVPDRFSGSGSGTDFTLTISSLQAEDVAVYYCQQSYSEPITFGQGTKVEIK
B2: B029_1G7 scFv displayed on phage (monoclonal phage clone) (scFv, V domains shown)
VH: EVQLLESGGGLVQPGGSLRLSCAASGFTFTDSAMSWVRQAPGKGLEWVSDIDGSGSGGGTYYADSVKGRFTISRDNSKNTLYLQMNSLRAEDTAVYYCATDRGWGTFDFWGQGTLVTVSS
VL: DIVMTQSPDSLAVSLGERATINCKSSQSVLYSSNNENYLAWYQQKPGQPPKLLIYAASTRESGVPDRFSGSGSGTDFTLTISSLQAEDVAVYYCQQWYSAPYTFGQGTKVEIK
B3: B029_1A6 scFv displayed on phage (monoclonal phage clone) (scFv, V domains shown)
VH: EVQLLESGGGLVQPGGSLRLSCAASGFTFSNYAMSWVRQAPGKGLEWVSAISGSGGSTYYADSVKGRFTISRDNSKNTLYLQMNSLRAEDTAVYYCARGGLVLSPWGQGTLVTVSS
VL: EIVLTQSPGTLSLSPGERATLSCRASQSVSSNSLAWYQQKPGQAPRLLIYDASSRATGIPDRFSGSGSGTDFTLTISRLEPEDFAVYYCQQYESSPLTFGQGTKVEIK
B4: B029_2H1 scFv displayed on phage (monoclonal phage clone) (scFv, V domains shown)
VH: EVQLLESGGGLVQPGGSLRLSCAASGFTFTDYAMSWVRQAPGKGLEWVSWISGSGGSTKYADSVKGRFTISRDNSKNTLYLQMNSLRAEDTAVYYCAKCYDILTGYSIDYGMDVWGQGTTVTVSS
VL: EIVLTQSPGTLSLSPGERATLSCRASQSVSSTYLAWYQQKPGQAPRLLIYGASSRATGIPDRFSGSGSGTDFTLTISRLEPEDFAVYYCQQYSSAPFTFGQGTKVEIK
B5: B029_1A7 scFv displayed on phage (monoclonal phage clone) (scFv, V domains shown)
VH: EVQLLESGGGLVQPGGSLRLSCAASGFTFSSYWMSWVRQAPGKGLEWVSDISGSGGSTYYADSVKGRFTISRDNSKNTLYLQMNSLRAEDTAVYYCASLPDSSGYYHWFDPWGQGTLVTVSS
VL: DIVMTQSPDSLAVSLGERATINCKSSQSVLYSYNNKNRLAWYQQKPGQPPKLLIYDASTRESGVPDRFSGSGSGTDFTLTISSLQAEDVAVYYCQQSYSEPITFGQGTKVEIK
B6: B029_1H1 scFv displayed on phage (monoclonal phage clone) (scFv, V domains shown)
VH: EVQLLESGGGLVQPGGSLRLSCAASGFTFSSYAMSWVRQAPGKGLEWVSEIDGEGDSTKYADSVKGRFTISRDNSKNTLYLQMNSLRAEDTAVYYCAKEYYDIFDGTDVWGQGTTVTVSS
VL: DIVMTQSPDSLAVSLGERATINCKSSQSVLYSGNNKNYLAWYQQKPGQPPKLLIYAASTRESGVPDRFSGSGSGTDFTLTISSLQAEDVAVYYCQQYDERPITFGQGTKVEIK
B7: B029_2D4 scFv displayed on phage (monoclonal phage clone) (scFv, V domains shown)
VH: EVQLLESGGGLVQPGGSLRLSCAASGFTFSSYAMSWVRQAPGKGLEWVSAISGSGDSTYYADSVKGRFTISRDNSKNTLYLQMNSLRAEDTAVYYCARDVDSFEGGMDVWGQGTTVTVSS
VL: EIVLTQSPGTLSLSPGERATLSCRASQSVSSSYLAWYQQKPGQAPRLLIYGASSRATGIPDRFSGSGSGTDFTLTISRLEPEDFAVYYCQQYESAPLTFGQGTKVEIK

T1 sequence (P78395 whole entry): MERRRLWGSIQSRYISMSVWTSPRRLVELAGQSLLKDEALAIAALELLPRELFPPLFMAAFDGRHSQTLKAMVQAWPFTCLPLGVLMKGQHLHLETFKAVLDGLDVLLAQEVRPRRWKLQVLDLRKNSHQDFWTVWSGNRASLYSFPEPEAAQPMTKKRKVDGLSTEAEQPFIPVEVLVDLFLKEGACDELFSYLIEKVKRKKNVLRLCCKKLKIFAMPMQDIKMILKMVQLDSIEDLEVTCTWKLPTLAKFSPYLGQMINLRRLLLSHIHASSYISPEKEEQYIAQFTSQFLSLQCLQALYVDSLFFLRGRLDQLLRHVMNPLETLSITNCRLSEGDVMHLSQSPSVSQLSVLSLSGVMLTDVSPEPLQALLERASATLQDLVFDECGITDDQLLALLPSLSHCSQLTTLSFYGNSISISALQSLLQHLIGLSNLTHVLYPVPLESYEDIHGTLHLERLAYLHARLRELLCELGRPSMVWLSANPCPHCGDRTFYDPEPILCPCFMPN

The first test concerns the target T1, PRAME (Preferentially Expressed Antigen in Melanoma) on PRAME+ cells (human, UniProt P78395 1-509).
T1 construct: whole, on cells; Endogenous PRAME on the THP-1 human cell line; also called THP-1 cells
In words: flow cytometry, titrated antibody on THP-1 cells. An excerpt:
MPA1 (Pankov et al., 2017), a rabbit anti-PRAME polyclonal antibody was included as reference for comparison.
With B1, the response was half-maximal at 1.45 nM (EC50).

The target in another test is T2, PRAME peptide, amino acids Arg310-Asn331 of PRAME, conjugated to biotin or BSA (UniProt P78395 310-331, conjugated to either biotin or bovine serum albumin (BSA); site not stated).
T2 construct: range 310-331
T2 peptide (looked up): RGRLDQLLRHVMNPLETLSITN
Briefly: ELISA with monoclonal phage supernatants. An excerpt: 184 PRAME binding phage clones yielded 35 membrane target hits with 6 unique sequences. Clones with unique antibody sequences were chosen for further analysis.
As to B2, the binding result was “binds”.
For B3, the binding result is reported as “binds”.
As to B4, the binding result is “binds”.
B5: the binding result is “binds”.
Same read-out and setting: for B6 the value was “binds”; for B7, “binds”.
